# Positions of bridges follow the written chain, without caps; N, C: chain ends. Non-standard residues stand in square brackets, D forms with d. Groups on a side chain read outwards from the residue. No end group written: not given here. *: point of attachment. Docosanoyl = CCCCCCCCCCCCCCCCCCCCCC(=O)*; Phe(4-NH2) = Nc1ccc(C[C@H](N)C(=O)O)cc1; PhLac = O=C(O)[C@@H](O)Cc1ccccc1; Aib = CC(C)(N)C(=O)O; C20 = C20 acyl group; Sar = CNCC(=O)O
# B1: [PLA6, D9, E16, E24K28(lactam)]G(6~29) (Table 2 peptide 4) (peptide)
# peptide: [PhLac]TSDYSKYLDERRAQDFVEWLMKT
# modifications: lactam 19-23
# B2: [A2E3, E16K20(Lactam), D28]G(1~29) (Table 2 peptide 8) (peptide)
# peptide: HAEGTFTSEYSKYLDERRAKDFVQWLMDT-NH2
# modifications: lactam 16-20; N-terminus assumed
# SMILES: CSCC[C@H](NC(=O)[C@H](CC(C)C)NC(=O)[C@H](Cc1c[nH]c2ccccc12)NC(=O)[C@H](CCC(N)=O)NC(=O)[C@@H](NC(=O)[C@H](Cc1ccccc1)NC(=O)[C@H](CC(=O)O)NC(=O)[C@@H]1CCCCNC(=O)CC[C@H](NC(=O)[C@H](CC(=O)O)NC(=O)[C@H](CC(C)C)NC(=O)[C@H](Cc2ccc(O)cc2)NC(=O)[C@H](CCCCN)NC(=O)[C@H](CO)NC(=O)[C@H](Cc2ccc(O)cc2)NC(=O)[C@H](CCC(=O)O)NC(=O)[C@H](CO)NC(=O)[C@@H](NC(=O)[C@H](Cc2ccccc2)NC(=O)[C@@H](NC(=O)CNC(=O)[C@H](CCC(=O)O)NC(=O)[C@H](C)NC(=O)[C@@H](N)Cc2c[nH]cn2)[C@@H](C)O)[C@@H](C)O)C(=O)N[C@@H](CCCNC(=N)N)C(=O)N[C@@H](CCCNC(=N)N)C(=O)N[C@@H](C)C(=O)N1)C(C)C)C(=O)N[C@@H](CC(=O)O)C(=O)N[C@H](C(N)=O)[C@@H](C)O
# B3: [A2E3, E16K20(Lactam),D28]G(2~29) (Table 2 peptide 7) (peptide)
# peptide: AEGTFTSEYSKYLDERRAKDFVQWLMDT
# modifications: lactam 15-19
# B4: Peptide D (parent peptide, lacking acylation and lacking a dipeptide prodrug moiety) (peptide)
# peptide: F[Aib]EGTFTSD[Phe(4-NH2)]SIYLDKQAA[Aib]EFVNWLLAGGPSSGAPPPS-NH2
# modifications: N-terminus assumed
# SMILES: CC[C@H](C)[C@H](NC(=O)[C@H](CO)NC(=O)[C@H](Cc1ccc(N)cc1)NC(=O)[C@H](CC(=O)O)NC(=O)[C@H](CO)NC(=O)[C@@H](NC(=O)[C@H](Cc1ccccc1)NC(=O)[C@@H](NC(=O)CNC(=O)[C@H](CCC(=O)O)NC(=O)C(C)(C)NC(=O)[C@@H](N)Cc1ccccc1)[C@@H](C)O)[C@@H](C)O)C(=O)N[C@@H](Cc1ccc(O)cc1)C(=O)N[C@@H](CC(C)C)C(=O)N[C@@H](CC(=O)O)C(=O)N[C@@H](CCCCN)C(=O)N[C@@H](CCC(N)=O)C(=O)N[C@@H](C)C(=O)N[C@@H](C)C(=O)NC(C)(C)C(=O)N[C@@H](CCC(=O)O)C(=O)N[C@@H](Cc1ccccc1)C(=O)N[C@H](C(=O)N[C@@H](CC(N)=O)C(=O)N[C@@H](Cc1c[nH]c2ccccc12)C(=O)N[C@@H](CC(C)C)C(=O)N[C@@H](CC(C)C)C(=O)N[C@@H](C)C(=O)NCC(=O)NCC(=O)N1CCC[C@H]1C(=O)N[C@@H](CO)C(=O)N[C@@H](CO)C(=O)NCC(=O)N[C@@H](C)C(=O)N1CCC[C@H]1C(=O)N1CCC[C@H]1C(=O)N1CCC[C@H]1C(=O)N[C@@H](CO)C(N)=O)C(C)C
# B5: Peptide D with a C20-acylated lysine attached directly to the 4-amino group of phenylalanine at position 10 (peptide)
# peptide: F[Aib]EGTFTSD[Phe(4-NH2)]([Lys-C20 acyl])SIYLDKQAA[Aib]EFVNWLLAGGPSSGAPPPS-NH2
# modifications: also: acylated amino group of the Lys not given here
# B6: [E9, E16K20(lactam), D28]G(4~29) (Table 2 peptide 5) (peptide)
# peptide: GTFTSEYSKYLDERRAKDFVQWLMDT-NH2
# modifications: lactam 13-17; N-terminus assumed
# SMILES: CSCC[C@H](NC(=O)[C@H](CC(C)C)NC(=O)[C@H](Cc1c[nH]c2ccccc12)NC(=O)[C@H](CCC(N)=O)NC(=O)[C@@H](NC(=O)[C@H](Cc1ccccc1)NC(=O)[C@H](CC(=O)O)NC(=O)[C@@H]1CCCCNC(=O)CC[C@H](NC(=O)[C@H](CC(=O)O)NC(=O)[C@H](CC(C)C)NC(=O)[C@H](Cc2ccc(O)cc2)NC(=O)[C@H](CCCCN)NC(=O)[C@H](CO)NC(=O)[C@H](Cc2ccc(O)cc2)NC(=O)[C@H](CCC(=O)O)NC(=O)[C@H](CO)NC(=O)[C@@H](NC(=O)[C@H](Cc2ccccc2)NC(=O)[C@@H](NC(=O)CN)[C@@H](C)O)[C@@H](C)O)C(=O)N[C@@H](CCCNC(=N)N)C(=O)N[C@@H](CCCNC(=N)N)C(=O)N[C@@H](C)C(=O)N1)C(C)C)C(=O)N[C@@H](CC(=O)O)C(=O)N[C@H](C(N)=O)[C@@H](C)O
# B7: Peptide D with C20 acylated (d)Lysine-sarcosine dipeptide prodrug moiety at position 10 (peptide)
# peptide: F[Aib]EGTFTSD[Phe(4-NH2)]([Sar-dK-C20 acyl])SIYLDKQAA[Aib]EFVNWLLAGGPSSGAPPPS-NH2
# B8: Peptide D with C22 acylated (d)Lysine-sarcosine dipeptide prodrug moiety at position 10 (peptide)
# peptide: F[Aib]EGTFTSD[Phe(4-NH2)]([Sar-dK-C22 acyl])SIYLDKQAA[Aib]EFVNWLLAGGPSSGAPPPS-NH2
# B9: [PLA6, D9, E16, K20E24(Lactam), D28]G(6-29) (Table 2 peptide 3) (peptide)
# peptide: [PhLac]TSDYSKYLDERRAKDFVEWLMDT
# modifications: lactam 15-19
# B10: ANK2 (Bayer peptide) (Table 2 peptide 9) (peptide)
# peptide: HSQGTFTSDYARYLDARRAREFIKWLVRGRG
# B11: Peptide D with a C22-acylated lysine attached directly to the 4-amino group of phenylalanine at position 10 (peptide)
# peptide: F[Aib]EGTFTSD[Phe(4-NH2)]([Lys-C22 acyl])SIYLDKQAA[Aib]EFVNWLLAGGPSSGAPPPS-NH2
# modifications: also: acylated amino group of the Lys not given here
# Columns and labels:
# glucagon receptor [1] = molecular target: glucagon receptor (UniProt P47871); assay: cell-based or functional assay
# glucagon receptor [2] = molecular target: glucagon receptor (UniProt P47871); assay: cell-based or functional assay; remark: listed apart in the source
# GLP-1 receptor [3] = molecular target: GLP-1 receptor (Homo sapiens, UniProt P43220); assay: GLP-receptor luciferase bioassay of samples incubated in 20% human plasma (restored activity); assay type: cell-based; conditions: 37° C., 0 to 5 d
# Experimental: To explore the possible formation of DKP and simultaneous regeneration of the parent drug, the above-mentioned peptides were incubated in 20% human plasma at 37° C. for approximately 5 days. Samples were collected at different time points (0, 1, 2, and 5 days).
# glucagon receptor [4] = molecular target: glucagon receptor (UniProt P47871 26-477, limits assumed); assay: cell-based or functional assay
# GLP-1 receptor [5] = molecular target: T1, GLP-1 receptor (UniProt P43220 24-463, limits assumed); assay: cell-based or functional assay
# GLP-1 receptor [6] = molecular target: T1, GLP-1 receptor; assay: cell-based or functional assay; remark: listed apart in the source
# Chain of glucagon receptor (UniProt P47871 26-477, limits assumed) (P47871 26-477 limits assumed): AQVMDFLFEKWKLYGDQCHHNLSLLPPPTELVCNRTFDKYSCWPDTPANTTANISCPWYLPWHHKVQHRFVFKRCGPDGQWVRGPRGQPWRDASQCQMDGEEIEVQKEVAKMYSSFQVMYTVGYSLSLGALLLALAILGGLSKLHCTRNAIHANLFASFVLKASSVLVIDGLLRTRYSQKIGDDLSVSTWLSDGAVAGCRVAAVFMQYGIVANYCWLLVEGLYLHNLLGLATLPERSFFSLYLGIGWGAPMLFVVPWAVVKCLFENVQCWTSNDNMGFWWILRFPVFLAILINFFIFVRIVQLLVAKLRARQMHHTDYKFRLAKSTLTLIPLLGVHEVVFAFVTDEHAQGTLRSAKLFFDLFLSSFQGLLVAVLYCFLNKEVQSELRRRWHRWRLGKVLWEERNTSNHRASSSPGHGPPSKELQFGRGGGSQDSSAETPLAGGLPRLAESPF
# Chain of GLP-1 receptor (Homo sapiens, UniProt P43220) (P43220 24-463): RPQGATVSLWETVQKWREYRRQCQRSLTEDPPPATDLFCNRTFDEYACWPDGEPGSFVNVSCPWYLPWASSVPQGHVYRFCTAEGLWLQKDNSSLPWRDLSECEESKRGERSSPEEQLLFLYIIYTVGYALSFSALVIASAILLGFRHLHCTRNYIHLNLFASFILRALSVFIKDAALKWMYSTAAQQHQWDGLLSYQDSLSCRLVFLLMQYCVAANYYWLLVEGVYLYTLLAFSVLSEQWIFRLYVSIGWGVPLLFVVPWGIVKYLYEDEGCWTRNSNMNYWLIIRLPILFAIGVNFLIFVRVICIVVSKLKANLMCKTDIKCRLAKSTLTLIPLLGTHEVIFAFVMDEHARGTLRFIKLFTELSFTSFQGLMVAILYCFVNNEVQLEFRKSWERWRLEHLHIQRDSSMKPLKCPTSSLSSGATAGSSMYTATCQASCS
# Chain of glucagon receptor (UniProt P47871) (P47871 26-477 limits assumed): as the sequence (P47871 26-477 limits assumed) above
Molecule,GLP-1 EC50 (GLP-1 receptor [5]),"Relative activity to GLP-1 standard, luciferase cAMP reporter assay, sample after 0 d in 20% human plasma at 37 C (GLP-1 receptor [6])","Relative activity to GLP-1 standard, luciferase cAMP reporter assay, sample after 1 d in 20% human plasma at 37 C (GLP-1 receptor [6])","Relative activity to GLP-1 standard, luciferase cAMP reporter assay, sample after 5 d in 20% human plasma at 37 C (GLP-1 receptor [6])",also measured
"E9, K12, E16 glucagon(6-39) Cex peptide (Table 1 peptide 1)",,,,,Glucagon IC50 (glucagon receptor [1]): 762 nM; Glu IC50 (glucagon receptor [2]): 762 nM
C22 attached directly to position 10 (non-prodrug): non-prodrug: C22-acylated lysine attached directly to the 4-amino group of phenylalanine at position 10 of Peptide D (F[Aib]EGTFTSD[Phe(4-NH2)]([Lys-Docosanoyl])SIYLDKQAA[Aib]EFVNWLLAGGPSSGAPPPS; not fully specified (C-terminus)),,,,,Change of activity over the time points in plasma (GLP-1 receptor [3]): No change
C20 attached directly to position 10 (non-prodrug): non-prodrug: C20-acylated lysine attached directly to the 4-amino group of phenylalanine at position 10 of Peptide D (F[Aib]EGTFTSD[Phe(4-NH2)]([Lys-C20])SIYLDKQAA[Aib]EFVNWLLAGGPSSGAPPPS; not fully specified (C-terminus)),,,,,Change of activity over the time points in plasma (GLP-1 receptor [3]): No change
B1,289 nM,,,,Glucagon IC50 (glucagon receptor [4]): 22 nM
B2,0.2 nM,,,,Glucagon IC50 (nM); PA = partial antagonist (glucagon receptor [4]): 130 nM
B3,,,,,Glucagon IC50 (glucagon receptor [4]): 63 nM
B4,,85.2%,84.1%,72.8%,
B5,,3.4%,0.7%,0.2%,
B6,151 nM,,,,Glucagon IC50 (glucagon receptor [4]): 10 to 30 nM
B7,,30.9%,37.8%,96.9%,"Restored (percent, 0 d; not defined in the filing, matches the ratio to the parent peptide at the same time) (GLP-1 receptor [6]): 36%; Restored (percent, 1 d; not defined in the filing, matches the ratio to the parent peptide at the same time) (GLP-1 receptor [6]): 45%; Restored (percent, 5 d; not defined in the filing, matches the ratio to the parent peptide at the same time) (GLP-1 receptor [6]): 133%"
B8,,30.9%,48.2%,63.2%,"Restored (percent, 0 d; not defined in the filing, matches the ratio to the parent peptide at the same time) (GLP-1 receptor [6]): 36%; Restored (percent, 1 d; not defined in the filing, matches the ratio to the parent peptide at the same time) (GLP-1 receptor [6]): 57%; Restored (percent, 5 d; not defined in the filing, matches the ratio to the parent peptide at the same time) (GLP-1 receptor [6]): 87%"
B9,239 nM,,,,Glucagon IC50 (glucagon receptor [4]): 74 nM
B10,0.28 nM,,,,
B11,,1.8%,2.1%,0.4%,

# Source: patent US20160058881A1, “PRODRUGS WITH PROLONGED ACTION” (INDIANA UNIVERSITY RESEARCH AND TECHNOLOGY CORPORATION, priority 2013, published 2016)
